Experimental findings from paper PMC4681293 are described below.

The assay concerns the target IFP2.0 (Deinococcus radiodurans). Description: SEC. A general note: In gel filtration, larger molecules generally elute earlier.

One may read the stoichiometry N as the number of molecules, sites or subunits per partner or assembly.

The substance IFP2.0 yielded a stoichiometry N of 2.
